Laboratory results from US6838433B2, “IL-6 antagonist peptides” (Applied Research Systems ARS Holding N.V., priority 1998, dated 2005).

Molecular target: T1, gp130-ICD (Homo sapiens, UniProt P40189)
T1 construct: in order to isolate the intracellular portion of human gp130; expressed in transfected cells; host or cells: Saccharomyces cerevisiae strain CG-1945; cDNA obtained by RT-PCR from HepG2 cells and cloned into pGADGH (also pAS2-1)
T1 sequence (P40189 642-918 limits assumed): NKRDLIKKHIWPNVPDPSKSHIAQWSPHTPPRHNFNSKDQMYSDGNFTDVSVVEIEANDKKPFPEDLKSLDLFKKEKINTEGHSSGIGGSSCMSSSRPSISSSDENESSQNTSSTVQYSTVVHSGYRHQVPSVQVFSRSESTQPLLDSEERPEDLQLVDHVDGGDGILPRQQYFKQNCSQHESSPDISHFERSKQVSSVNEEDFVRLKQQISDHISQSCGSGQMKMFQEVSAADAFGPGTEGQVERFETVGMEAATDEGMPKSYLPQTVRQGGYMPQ
Assay: Liquid β-galactosidase (LacZ) assay in yeast two-hybrid system
Assay type: cell-based
Settings: combination of clone E and gp130-ICD in yeast cells; three independent experiments
Description: We have also performed liquid β-galactosidase assays to quantify transcriptional activity: as shown in the FIG. 5, in the presence of gp130-ICD/GAL4AD the fusion protein clone E/GAL4BD was able to produce a transcriptional activity of lacZ gene about 2 to 3 fold higher than in the absence of gp130-ICD/GAL4AD, thus confirming the interaction detected after the first selection.
Liquid β-Galactosidase Assay
We prepared 5-ml overnight culture in liquid SD selection medium appropriate for plasmids.
We transferred 2 ml of the culture to 8 ml of YPD and incubate at 30° C. for 3-5 hours until the cells are in the mid-log phase (O.D.600=0.5-0.8).
The culture was centrifuged at 14,000 rpm for 30 seconds: in the next step, we remove the supernatants, wash the cells with a volume of Z-buffer and resuspend the pellet in 900 μl of Z buffer.
Immediately, two or more freeze/thaw cycles were performed, placing the tubes in liquid nitrogen and in a 37° C. water bath for 0.5-1 minute. […]
The reaction was stopped by adding 0.4 ml of 1 M Na2CO3: we recorded the time needed to obtain the results and O.D.420 of the samples.
β-galactosidase units were calculated by this formula: β-galactosidase units=1,000×O.D.420/(t×V×O.D.600) […]

Clone E: peptide isolated by THS, homology group II, SEQ ID NO:6; homology with JAK1 JH4 domain (WGDNEWWRSEPHKMEL)
β-galactosidase (LacZ) activity in liquid assay: about 3 units/ml
